From the DeepSol protein solubility set come the findings set out here.

A short description of the series: soluble on expression in E. coli; label from the status in PepcDB or PDB records.
Consider “MTRVRDLMSTHIVHCTPLDNVYEAAVKMKEESIGLIPVVENEQVVGLVTDRDLVVRGIAEKHPGSNKITNVMTTNIISVSPNDSIEKATELMAQHQIRRLPVVDSGQLIGMLALGDLAIRESADDQAGFALSEISERTE”, for which the “soluble on expression in E. coli” value was “not soluble”.
Under “MTSGTTRWLDDCTPRALERFADELIAMAEQREDEARRRFYEGMAVAAKLIALRWEGKCAYIDDHLLDNVYEALAVFSLEKLEKTLAMEAEEAHGGGRCSFCLKEKPRLAKGPLAAICDDCLQFGLQVIAKQP” stands “not soluble”.
With “MTSLILPTDDGGTREYRLQAATSWVKPTAPLTARRAYAAAHVIPEVAADNTPGAPAQLDWDATLAYRHELWSYGLGVADAMDTAQRGMGLDWAATQQLIKRTGAEAASVVAAGNAAITGKSVRDLVSCGAGTDQLDITALPEGAAGIQAVIDAYREQIAVVSEAGPKVILMASRALAKVANGADDYLHVYSTLLQEVDQPVILHWLGTMFDPALAGYWGSDDVSVATDTFLSLIREHSDKVDGVKVSLLDASHEVALRAALPEGVRLYTGDDFNYPELIDGDQTHHSDALLGIFAAIYPAASVALQKYDAGQGTEGRAILDSTRELGKHIFSAPTFYYKTGIAFMSWLNGKQPGFQMVGGLHSGRSVLHLAKTFELADQAGLLKDPSLAAFRMSDFLRINGVG”, the “soluble on expression in E. coli” value is given as “not soluble”.
On to “MTSLLGGNFTEALHTVLSNQLNVMSQKTSDSEAPTTFSSSSSSDSPPYDPMSLVSAGISDQNGLMDMFKDGLFATLVPPTDVANSDTASSESPEPAAQSHEAAEETGGTEEQQAAALSLIQSFGTPIPSKFEDIESQFFSEATIRDLMPVLASVQGSPPHNQNQLSFGSTSSPSAWARNAGRKKSHPVWDFFKDMKDSTGAGGVICLHCSWSGDDRSPNNLRTHLKKFHSDDGIFNRFSEKLAKMARRKQQESTLVIDPSHSKDDSAFFEGSSGSDAPSTIDTTQLMALLEQSAAAAAAAAAASSSENPITSSLLKKDRTTTTTTEKELSPLTAARASEILFAAGMRPHKKTSEIWEHYKCLNEKQNVECIYCWKVLKRNDSSTKSMWGHMNAYHQDILRDGTTRKKVKRPANGLDFDETPTQPYVKRVRGGAGSSSSLPSMVKMDQKPMLDSMAFLQQLQQSGSLTEADFSSFANGSSLNFLDSLPKSSEVININSGFVKKEEMEEDTENHVEAASSSSSDERIKSETPDTYGSPNTSTTDQNEQLAAFVSSLSNSNPMMFAMLNAAGNSTSSAPAPPKSSTSQQRSSSPPSAHDTSNGSMSPSKVDKDPSSFSLSEGHCAAQLMSMALDLEMTMSYHKRRSEIELCFESNRTVDESQGAASRKVICLTDLGKEIKITERINGSVKDTELWVKTDFNQFHWAIRGKCQKSADASRVPPLVVKPRSSRRSPQPVRRRPPGPRDVSSPTHSFLMRWSFLCTL”, for which the “soluble on expression in E. coli” value was “not soluble”.
With “MTSMATPHVAGIAALLLQAHPSWTPDKVKTALIETADIVKPDEIADIAYGAGRVNAYKAINYDNYAKLVFTGYVANKGSQTHQFVISGASFVTATLYWDNANSDLDLYLYDPNGNQVDYSYTAYYGFEKVGYYNPTDGTWTIKVVSYSGSANYQVDVVSDGSLSQPGSSPSPQPEPTVDAKTFQGLEHHHHHH”, the “soluble on expression in E. coli” value was “soluble”.
For “MTSPNNDILAAQLSQLGTLRAALAQAVVGQDAVVEQLLIGLLAGGHCLLEGAPGLGKTLLVRSLGQALDLQFRRVQFTPDLMPSDILGTELLEEDHGTGHRHFRFQQGPIFTNLLLADELNRTPPKTQAALLEAMSERTVSYAGTTYALPAPFFVLATQNPIEQAGTYPLPEAQLDRFLLHVRVDYPSEQEERDILTQTTGSASAQVPKVMDAASVQALQQHVRQVHVGAELLTWINRLVRASRPGPQASDEVRQWIKWGAGPRAGQSLVLASKARALLHGRFAATREDVVALAAPVMRHRLLLSFAAEAEQRTADDVVAALLRAVPFPALEHHHHHH”, the “soluble on expression in E. coli” value is listed as “soluble”.
In the case of “MTSVLDPDRALEDEAKDKFGFVGIAKQLAPPIIEAAKGEGMVIGLEGRWGSGKTSLLNFLRAELQASKKSGIHTITIAPWLNGDTSSLVLSLLEPMAAVLKQKEDELAESYGEGQSATKERVAEVGRLLRAYGPKTARRIASLANVAGYVLPGAQAIGGALAASASAADEIFDVGPTPSELKQELAVKIQELNVGFIVILDDLDRLEPEQAVEVVRLVRSVADFPKVVYLMCYDREVLSEALKTGLKVSDGDLFLQKIVQLTFNIPLPEPFDLRTQFRNEAKAIYFEATGVDLDGAILHDLTYAVDREGMGLSTPREVKLALNSIRFVFSQVKDDVYFPDLCRLHLIKTTNYKLYKWLEIYLSVRSVLVTGDATVSEDEKTKMGEELKMLLPASGPGSVHSIWSLARFIPGVVDTEKVSERVFNAINSSAISEAVRLKRLGSPLHYRFYFALTGPKTVMPDEDFNAILELARNDIDQLESRLAAETMKRRDSGRTWFEHVLDRLDDDCISSLDESQLSGILHALSGMMDIAMKEDGEVRSFALSLDGIANIVAKRCLVRLRELNPEKQANTVRSMAQDGKAINWLVGKFFRSQLFNHGKVGERAERPEQWEISEDLLDDIIEILRKRLSEQDIKNLIPNLPNVSAYLYGWMNLTDDDQAKNWVQEYSESDEGFLDILNHLRGWAMSDKVYYPLSEKTVSSFLDWNEVKTRLDGMQSGEFSDKLEHHHHHH”, the “soluble on expression in E. coli” value is “soluble”.
In the case of “MTTALHITLITETFPPEINGVANTLGRLCEGLRARGHQVELVRPRQGCDQSRASDEALLLCRGWPLPGYPGLQWGQSSMHKLLRRWKRQRPDVLYIATEGPLGLSALRAAKRLGISVVSGFHTNFQQYSSQYGLGLLTRLLTHYLRWFHNRSQLTLVPSASQHLELERRHFERLALLSRGVDSQLFHPAKRLDTLRADWGLGTDDLAVIHVGRLAQEKNLGLLKRCFERLQATYPQRRMKLIVVGDGPQRGALEKSLPEALFCGSQRGEALAAHYACGDLFLFPSLTETFGNVVLEALASGLAVVAYDQAGAAQHIRHGYNGVLAMPGDESAFCDAASWLLEEPETLRRVRLNARQHASRQGWAAVIEQFEDRLRSACEHGPAEDYEGLIEATVKPRSAVETLGTARGLPPSPPGAGSLEHHHHHH”, the “soluble on expression in E. coli” value is “soluble”.
Under “MTTALKIDFISDVSCPWCVIGLRALDQALEALGDEVQAQIHFQPFELNPNMPAEGQDIKEHIAEKYGSTPEQIEAIHETIRERGAELGFTFGKGERRIYNTFDAHRLLHWAEQEGKQPALKQALFVAYFSELKDPSSHQTLADVAQKVGLDRLRAQAILDSDEFASEVREAEQLWTSRGITSVPTMVFNDQYAVSGGQPVEVFVSAIRQMLSESK” stands “not soluble”.
The value for “MTTCLLDIDQQQSVLGAGYHEPRAYSPYGGMRVVPVSALAFCGQHLDPLTGSYPLGNGHRFYRPSLRRFISPDVLSPFGKGGLNAYAYCQGDPVNFADPSGRFPAIIAPVRNLVTGVINLGISAVKMYRNYRTGRDFALNSGYPASRSGVFTYGTSEHAVARWSVADKVVSAAGGISASLSIGTATARLITPESEVLAWVDFGVASFATVLSAYELYGLATSSAERRYPIQPVAYEIRTGVQPLEHHHHHH” was “soluble”; that for “MTTGNLQVAIYGFTARSRAFEPAGICYETRLIRDKLTLGHCTLPIYKNSPVAKPVTEQQRKKSSEEPAELRKDLFDADNEKYEKYLMKLDPNDCKNQDHYKVLGLSKLRWQATSDEIRFCYRQKVLKHHPDKKKHRGIVMEKEEYFTCITKAYEQVGMSDVKRQAFDSVDHKFNDIIPNEKSINHNNFYNELAPVFQLNSRWSNIKPVPELGKSDATREDVENFYDFWFNFQSWREFSYLDEEDKERGEDRYERREMEKQNKAERERRRKEEAKRIRKLVDIAYAKDPRIIKFKKEQQAKKDKAKEDKQRAIREKQEAIDREKREKEEAEAKQKEEADRKAKEEREREKKERDIAKKAMSQQRKRLKKLADEAGHWTENPRDKLTEMERIERICIGFTVDQLRELCEKVESLSIASEIQTALTDAEILKKEAAGAKVTITEDKNKENEKQADKETWTSEEIQLLVKASNTFPPGTVERWVQIADYINEHRKDSTGLPPKTEKQVIKQCKAVQTMNVKLPSTTQNQLGTALPDEDVWSATEQKTLEDAIKKHKSSDPERWEKISTEVGTKSKKACIRRFKYLVQMVKNKK” was “not soluble”; that for “MTTHQVKKSEAKRQHILDSGFHLVLRKGFVGVGLQEILKTSGVPKGSFYHYFESKEAFGCELLKHYISDYQIRLNQLWTTETSARDKLMNYLQCWVKDPATEQSWAESCLIVKMAAEVADLSEDMRLIMNDGVKRLIARMADLIRIGQQEGSIQTSVVPDVLAQVIYQMYLGAALLSKLYKHKAPLFQALESTKMMLDGCNHVQQDKNQ” was “soluble”.
With “MTTIEIDAPAGPIDALLGLPPGQGPWPGVVVVHDAVGYVPDNKLISERIARAGYVVLTPNMYARGGRARCITRVFRELLTKRGRALDDILAARDHLLAMPECSGRVGIVGFCMGGQFALVLSPRGFGATAPFYGTPLPRHLSETLNGACPIVASFGTRDPLGIGAANRLRKVTAAKNIPADIKSYPGAGHSFANKLPGQPLVRIAGFGYNEAATEDAWRRVFEFFGQHLRAGSPGEP”, the “soluble on expression in E. coli” value is listed as “soluble”.
With “MTTKLQKRVNDLDEDIPRPPFSSHSDKTEDKEGVSEACPVCEKTVQNPCVLETGYVACYPCAISYLVNNEGHCPVTNKKLLGCTYNKHTNKWEVVTGIRKLLI”, the “soluble on expression in E. coli” value is reported as “not soluble”.
Consider “MTTLRTLMAVSLVLNLAACGFKLRGQVSELPFERVYITAPAGLTIGSDLERVISTHTRAKVVNKAEKSEAIIQIVHAIREKRILSLSESGRVREFELVYRVAARLLDAHNAELASLQEIRLTRILPFLDAQELAKAAEEEMLYKDMQKDAVQQILRQVSAVTSAGLEHHHHHH”, for which the “soluble on expression in E. coli” value is “not soluble”.
In the case of “MTTLTQVRPASVFVVSGGAKGITAQCVIELAQHQPCRFILLGRSEVIENEPDFARDCVEESVLKKAIMQHLLAQGEKPTPMSVQKVYHKIVSSREIKATLEAIAATGSQVEYIDVDVTNVAELRQKLADVGKITGIIHGAGNLADKLIEKKTDQDFEKVYTAKVQGLENLLSCVDANQLEHLVLFSSVAGFYGNMGQSDYAIANEILNKSAHLIKQNYPQCHVVAINWGGWDSGMVTPELKKAFAERGIDIIPVDVGTKMLVNELHPSHHDSTQVVIGSPIIPAPGNIDPQLRSYRIRRRMTVEANPFLLDHVIAGTPVLPATCGMSWMINACEECYPGYRYFRCQDFKILKGITFNDKVASEHILEIQEVAKHGSESIEFKTKVLSKTPEGKIHYHFSAHITIVRELPAAPVYESLDMTEDHTIGAIGKDFYQKGGLSLFHGISFQQITRVLNINSQKITVECCWAEIPLETQGQFPVKWHNPYATDLSTQPLWLWLSHVHQEVCLPGQITKSEQFRAIPRNKPFYVSCEIEHKTPSGVTADIILHDREGKIYFRIYQAKAIIAPMNLHLEHHHHHH”, the “soluble on expression in E. coli” value is reported as “soluble”.
As to “MTTQVKPIRSFLFVPGNKESMLDKAALAKADALILDLEDSVPPAEKLAARELVARKIPALIAQGQRIWVRINRSAHIYDLDDILAVAQPGVEGVVISKPWGPEDVYMASSMIAEAETRANLPLGSIGLIPLLETARSMQLCYEIAQMPRVVGIVGATAKNADMGRALKFVWTPEGRETEYLKSRVVMAARAAGKQAIGGIWQQIKDLEGLARSSAFDRQLGMSGELALHPMQVETINRTYTPTAEDVAYYQGMIDALDAAQAQGRASVMYDGEHIDIAHVKTAHEVIALARAFDAAAALEHHHHHH”, the “soluble on expression in E. coli” value is listed as “soluble”.
